# Test: In vitro drug release from melt-extruded rods in isotonic phosphate buffer
# Type: physicochemical
# Conditions: rod-shaped samples, isotonic phosphate buffer pH 7.4, 37° C.; for Release Rate (ng of free acid Latanoprost/mg polymer drug conjugate/24 hours): continuous stirring, HPLC-UV
# Experimental: Following in vitro release guidelines recommended by the International Organisation of Standardisation, rod-shaped samples prepared by melt extrusion, were suspended in wire baskets which were immersed in isotonic phosphate buffer (IPB), adjusted to pH 7.4 using orthophosphoric acid and containing 0.01% sodium azide as a preservative, and incubated at 37° C. with continuous stirring. Aliquots of the receptor solution were removed for analysis at predetermined time points until drug release from the polymer no longer increased.
# The amount of prostaglandin drug released from the rods at the various time points was quantified by reverse phase high performance liquid chromatography (HPLC) with a UV absorbance detector and analyte separation was performed on a C18 column either isocratically or with a gradient system using a degassed mobile phase.
# Using the above method, the rate of release of the prostaglandin drug latanoprost from various polymer-drug conjugates was determined.
Substance,Period of zero-order release [days],Release Rate (ng of free acid Latanoprost/mg polymer drug conjugate/24 hours)
"Polyurethane of (Z)-1,3-dihydroxypropan-2-yl 7-((1R,2R,3R,5S)-3,5-dihydroxy-2-((R)-3-hydroxy-5-phenylpentyl)cyclopentyl)hept-5-enoate and DVDIP [Example 12]",61,637 ng of free acid Latanoprost/mg
"Polyurethane of (Z)-1,3-dihydroxypropan-2-yl 7-((1R,2R,3R,5S)-3,5-dihydroxy-2-((R)-3-hydroxy-5-phenylpentyl)cyclopentyl)hept-5-enoate and ELDI [Example 10]",61,899 ng of free acid Latanoprost/mg
"Polyurethane of (Z)-3-hydroxy-2-(hydroxymethyl)-2-methylpropyl 7-((1R,2R,3R,5S)-3,5-dihydroxy-2-((R)-3-hydroxy-5-phenylpentyl)cyclopentyl)hept-5-enoate and DVDIP [Example 16]",61,138 ng of free acid Latanoprost/mg
